In the supplement of paper PMC10126150:
± gives the standard deviation of the averaged measurements.

Test system: ATP
Assay: switch fluorescence ratio, 500 uM ATP over buffer (Cy3 cluster intensity, sum of 5 cycles each) (fold (ratio)); higher = stronger signal-on switching upon ATP binding; sequences stand for … in TCGTCGGCAGCGTCAGATGTGTATAAGAGACAGTTTTTTTTTTTTTTTTTTTTTTTTT…TC
Details: aptamer strand: ATP DNA aptamer (quencher-CACCTGGGGGAGTATTGCGGAGGAAGG + anchor), 100 nM annealed; ATP concentration: 500 uM
Summary of the method: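 After annealing to 100 nM quencher-labelled ATP aptamer, Cy3-labelled switching-strand clusters on a modified Illumina MiSeq flow-cell were imaged in selection buffer. A second image followed after 15 min with 500 uM ATP at 22 °C, and five such buffer/ATP cycles were done, each separated by NaOH stripping and re-annealing. The fluorescence ratio, averaged per switch-domain sequence, is summed target-cycle over summed buffer-cycle Cy3 intensity per cluster, with clusters outside 100-1000 RFU excluded.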
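Also: ATP exposure 15 min at 22 °C before imaging.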

| Sequence | switch fluorescence ratio |
| --- | --- |
| AAGTCCAAGA | 1.01 ± 0.033 |
| AAAAGACGGG | 1.03 ± 0.022 |
| GTTTGTTTGG | 0.974 ± 0.023 |
| GATATGATCA | 0.9733 ± 0.0052 |
| ATAGAAGAAA | 1.02 ± 0.047 |
| CGGGGAAGAT | 0.981 ± 0.016 |
| AGTATGGTGG | 0.998 ± 0.013 |
| TTGGGGATGC | 1.33 ± 0.23 |
| GGGCGCTGGG | 1 ± 0.032 |
| GTAATTTAGT | 1.02 ± 0.022 |
| TGATCAGATC | 1 ± 0.026 |
| TAAACATCAC | 1.164 ± 0.011 |
| AGGGTGTTGG | 1 ± 0.017 |
| AAAAACTTGT | 1.03 ± 0.034 |
| CTAGGTGTGG | 1.04 ± 0.057 |
| GAACTGGGGC | 0.942 ± 0.076 |
| CCTCGTGTTG | 1.02 ± 0.022 |
| AATCGGGTTT | 0.953 ± 0.02 |
| TTTGCTACTG | 1.052 ± 0.0096 |
| TGGGGACACT | 1.02 ± 0.016 |
| GGAGAGGACG | 1.07 ± 0.09 |
| TGTGTTCCTT | 1 ± 0.018 |
| TAAATTTAAG | 1 ± 0.027 |
| GGTTTTGTGG | 1.01 ± 0.03 |
| AAGACTGAGG | 0.956 ± 0.026 |

| Sequence | switch fluorescence ratio |
| --- | --- |
| GTTTGAAGGT | 1.01 ± 0.011 |
| GAGGCAGTTG | 0.993 ± 0.076 |
| TTGATGTTCG | 0.976 ± 0.015 |
| GCTCATGAAT | 1 ± 0.023 |
| TTTGATATTT | 1.11 ± 0.22 |
| GGGTTATTAG | 0.986 ± 0.018 |
| TGTGGAAGTT | 0.9686 ± 0.0021 |
| AATTCCTCTT | 1.05 ± 0.048 |
| AGATAATGGC | 1.11 ± 0.19 |
| ATTACTGGTG | 1.1 ± 0.019 |
| ATTCTTGGGT | 1 ± 0.075 |
| CGGGATATGA | 1.03 ± 0.028 |
| TTTTACCCGT | 1.01 ± 0.013 |
| TGGTGAATTT | 1.016 ± 0.0067 |
| GCGGGGTTTG | 1.01 ± 0.015 |
| TTTCAAAAGA | 1 ± 0.048 |
| AAATAAGGAG | 1.02 ± 0.033 |
| TATGGACGTT | 1.03 ± 0.053 |
| ACGGGGGCCT | 1.014 ± 0.0045 |
| AAGAATGGCC | 0.954 ± 0.0032 |
| TTTGACTAGG | 1.01 ± 0.038 |
| AAGGAATCGC | 1 ± 0.027 |
| GGGTTAGGAG | 0.99 ± 0.029 |
| ATAAGGTTTT | 0.985 ± 0.014 |
| GACGGTTTTT | 1.01 ± 0.024 |

| Sequence | switch fluorescence ratio |
| --- | --- |
| AATAGTCGGC | 1 ± 0.042 |
| TTATTTATCG | 0.987 ± 0.026 |
| TAATTAGAGT | 0.967 ± 0.046 |
| TTTGTACTTC | 1.02 ± 0.049 |
| GAGAATAGAG | 0.989 ± 0.022 |
| GATGTATGTT | 0.978 ± 0.037 |
| AAGGTTGTTT | 0.983 ± 0.03 |
| TCGGAGTCTG | 1.04 ± 0.056 |
| TACGGGGTAA | 0.995 ± 0.022 |
| GAAGTGAGTT | 1 ± 0.018 |
| AGGAATGTTA | 1.03 ± 0.018 |
| GGGGGGAGCC | 0.996 ± 0.015 |
| GTGTGCACGC | 1.05 ± 0.065 |
| GGGGATAAGA | 0.985 ± 0.036 |
| GTCCGGCAAT | 2.04 ± 0.33 |
| AGGCTTTCTC | 1.14 ± 0.11 |
| GGGTGACGGT | 1.01 ± 0.04 |
| TGCGCTTCTA | 0.98114 ± 0.00055 |
| AATATGGGTG | 1.08 ± 0.01 |
| CGTTATGCCT | 0.975 ± 0.061 |
| GGAGCTTTCA | 1.05 ± 0.088 |
| TGGAGGTCGC | 1.01 ± 0.049 |
| CATATTTTAG | 0.989 ± 0.032 |
| GTGATCTAGG | 1.04 ± 0.033 |
| CGGGGGGAAG | 1.01 ± 0.029 |

| Sequence | switch fluorescence ratio |
| --- | --- |
| TTGGGATGTT | 0.9904 ± 0.009 |
| ATTTTTATGA | 0.967 ± 0.015 |
| TATGTAATGG | 1.02 ± 0.036 |
| GTGTGGGGGA | 1.02 ± 0.04 |
| AGCAGGGGGA | 1.01 ± 0.034 |
| AAGGGGGTTA | 0.991 ± 0.025 |
| TGTATTAAGG | 1.01 ± 0.036 |
| ATCTTTGTGT | 1.01 ± 0.043 |
| TTCAGTCGAG | 0.979 ± 0.02 |
| CCTCAGGGAA | 1.2 ± 0.14 |
| ACAGTGTGTG | 1.02 ± 0.027 |
| TGAAGGGGGC | 0.994 ± 0.045 |
| CGGAACTGAA | 1.02 ± 0.072 |
| TTTCCTATAA | 1.13 ± 0.21 |
| CAGGGGTATA | 1.02 ± 0.024 |
| GCTTGGATCG | 0.993 ± 0.022 |
| GCTGCATATA | 1.066 ± 0.0095 |
| GACACTAAGG | 1.01 ± 0.038 |
| GTACTGGATT | 0.988 ± 0.035 |
| TCTGTATACA | 0.989 ± 0.037 |
| TCAGGGTTAT | 1.02 ± 0.0034 |
| GTGTGGGATC | 1.013 ± 0.0039 |
| AAATTAAAAG | 0.984 ± 0.031 |
| TTTCTAGTCT | 0.935 ± 0.0085 |
| CACGATATTC | 1.18 ± 0.027 |
